Measured values reported in article PMC11076521.

Target: MYC-tagged FTL wild type, P02792
Assay: co-IP; HeLa-FTH1 KO cells; anti-MYC IP of MYC-FTH1/FTL, immunoblot; 50 mM Tris-HCl pH 7.5, 150 mM NaCl, 0.5% Nonidet P40, 1 mM DTT; quantified relative to FTH1-WT, normalized to immunoprecipitated FTH1/FTL and NCOA4 input
Settings: remark: other sources report otherwise

MYC-tagged FTL wild type, P02792, sequence (P02792 whole entry): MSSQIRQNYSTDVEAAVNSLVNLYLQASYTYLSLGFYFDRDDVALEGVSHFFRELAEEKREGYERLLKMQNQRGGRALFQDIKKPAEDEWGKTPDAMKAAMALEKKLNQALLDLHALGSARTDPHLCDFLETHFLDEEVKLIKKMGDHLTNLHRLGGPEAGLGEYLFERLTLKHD

relative interaction by immunoprecipitation (% of FTH1-WT): 14%
B1: C-terminally HA-FLAG-tagged NCOA4, Q13772 1-614 (natural protein)
chain: MNTFQDQSGSSSNREPLLRCSDARRDLELAIGGVLRAEQQIKDNLREVKAQIHSCISRHLECLRSREVWLYEQVDLIYQLKEETLQQQAQQLYSLLGQFNCLTHQLECTQNKDLANQVSVCLERLGSLTLKPEDSTVLLFEADTITLRQTITTFGSLKTIQIPEHLMAHASSANIGPFLEKRGCISMPEQKSASGIVAVPFSEWLLGSKPASGYQAPYIPSTDPQDWLTQKQTLENSQTSSRACNFFNNVGGNLKGLENWLLKSEKSSYQKCNSHSTTSSFSIEMEKVGDQELPDQDEMDLSDWLVTPQESHKLRKPENGSRETSEKFKLLFQSYNVNDWLVKTDSCTNCQGNQPKGVEIENLGNLKCLNDHLEAKKPLSTPSMVTEDWLVQNHQDPCKVEEVCRANEPCTSFAECVCDENCEKEALYKWLLKKEGKDKNGMPVEPKPEPEKHKDSLNMWLCPRKEVIEQTKAPKAMTPSRIADSFQVIKNSPLSEWLIRPPYKEGSPKEVPGTEDRAGKQKFKSPMNTSWCSFNTADWVLPGKKMGNLSQLSSGEDKWLLRKKAQEVLLNSPLQEEHNFPPDHYGLPAVCDLFACMQLKVDKEKWLYRTPLQM
